# Experimental data: patent US20200362031A1 (BIO TECHNE, published 2020)
# B1: Recombinant human VSIG3 Fc Chimera (Fc fusion)
# chain: LEVSESPGSIQVARGQTAVLPCTFTTSAALINLNVIWMVTPLSNANQPEQVILYQGGQMFDGAPRFHGRVGFTGTMPATNVSIFINNTQLSDTGTYQCLVNNLPDIGGRNIGVTGLTVLVPPSAPHCQIQGSQDIGSDVILLCSSEEGIPRPTYLWEKLDNTLKLPPTATQDQVQGTVTIRNISALSSGLYQCVASNAIGTSTCLLDLQVISPQPRNIGLIAGIEGRMDPKSCDKTHTCPPCPAPEAEGAPSVFLFPPKPKDTLMISRTPEVTCVVVDVSHEDPEVKFNWYVDGVEVHNAKTKPREEQYNSTYRVVSVLTVLHQDWLNGKEYKCKVSNKALPAPIEKTISKAKGQPREPQVYTLPPSRDELTKNQVSLTCLVKGFYPSDIAVEWESNGQPENNYKATPPVLDSDGSFFLYSKLTVDKSRWQQGNVFSCSVMHEALHNHYTQKSLSLSPGK
# notes: also called rhVSIG3; rhVSIG-3
# B2: VSIG3(1-245)-COMP-AlkPhos-Flag/His (other)
# chain: LEVSESPGSIQVARGQPAVLPCTFTTSAALINLNVIWMVTPLSNANQPEQVILYQGGQMFDGAPRFHGRVGFTGTMPATNVSIFINNTQLSDTGTYQCLVNNLPDIGGRNIGVTGLTVLVPPSAPHCQIQGSQDIGSDVILLCSSEEGIPRPTYLWEKLDNTLKLPPTATQDQVQGTVTIRNISALSSGLYQCVASNAIGTSTCLLDLQVISPQPRNIGLIAGSENLYFQGNSGGGSGGGTGGGDLAPQMLRELQETNAALQDVRELLRHRVKEITFLKNTVMECDACGLDRNLPPLAPLGPIIPVEEENPDFWNREAAEALGAAKKLQPAQTAAKNLIIFLGDGMGVSTVTAARILKGQKKDKLGPEIPLAMDRFPYVALSKTYNVDKHVPDSGATATAYLCGVKGNFQTIGLSAAARFNQCNTTRGNEVISVMNRAKKAGKSVGVVTTTRVQHASPAGTYAHTVNRNWYSDADVPASARQEGCQDIATQLISNMDIDVILGGGRKYMFRMGTPDPEYPDDYSQGGTRLDGKNLVQEWLAKRQGARYVWNRTELMQASLDPSVTHLMGLFEPGDMKYEIHRDSTLDPSLMEMTEAALRLLSRNPRGFFLFVEGGRIDHGHHESRAYRALTETIMFDDAIERAGQLTSEEDTLSLVTADHSHVFSFGGYPLRGSSIFGLAPGKARDRKAYTVLLYGNGPGYVLKDGARPDVTESESGSPEYRQQSAVPLDEETHAGEDVAVFARGPQAHLVHGVQEQTFIAHVMAFAACLEPYTACDLAPPAGTTDDYKDDDDKHHHHHH
# notes: also called penta-VSIG3
# Key:
# VISTA(1-195)-COMP-His [1] = biological target: VISTA(1-195)-COMP-His (human); experiment: SPR (Biacore T200); VISTA-COMP against monomeric VISTA, VSIG3-Fc analyte
# Description: (§1) VISTA or VISTA-COMP (each prepared as described in Example 4) was covalently immobilized to the surface of a CM5 chip (GE Healthcare, US) using an anti-poly His antibody. Dilutions of VSIG3 Fc-fusion were then flowed over the surface at concentration ranging between 0.2 nM and 20 μM and the double reference subtracted data fit to a 1:1 Langmuir binding model with Biacore T200 Evaluation Software version 3.1
# This increase is largely due to an […].
# [2] = biological target: T1, Recombinant human VISTA Fc Chimera (human); experiment: functional ELISA; rhVISTA coated 2 µg/mL, biotinylated rhVSIG3, streptavidin-HRP
# T1 construct: also called rhVISTA; VISTA/IgG Fc fusion protein
# Description: Recombinant human VSIG3 Fc Chimera (“rhVSIG3”—encoded by SEQ ID NO:3; see Table 1) specifically binds to a recombinant human VISTA Fc Chimera (“rhVISTA”—encoded by SEQ ID NO:6; see Table 1) on a functional ELISA binding assay. rhVISTA was coated on the wells of a ELISA microtiter plate at 2 μg/ml in a 100 μL volume. Following blocking of the wells with 1% BSA, varying amounts of rhVSIG3 labeled with biotin was added. Biotin label associated with the plate due to the rhVSIG3-rhVISTA interaction was detected with streptavidin-HRP. […] The non-specific binding is subtracted and in all cases was less than 5% of the total signal.
# VISTA(1-195)-COMP-His [3] = biological target: VISTA(1-195)-COMP-His (human); experiment: SPR (Biacore T200); VISTA-COMP captured by anti-poly His antibody on CM5 chip, VSIG3-Fc analyte, 1:1 Langmuir fit
# Description: as §1
# monomeric VISTA [4] = biological target: monomeric VISTA (human); experiment: SPR (Biacore T200); monomeric VISTA captured by anti-poly His antibody on CM5 chip, VSIG3-Fc analyte, 1:1 Langmuir fit
# Description: as §1
# VISTA(1-195)-COMP-His [5] = biological target: VISTA(1-195)-COMP-His (human); experiment: SPR (Biacore): VISTA-COMP captured by anti-poly-His antibody on a CM5 chip, VSIG3-Fc analyte 0.2 to 500 nM, 1:1 fit
# Description: (§2) FIG. 9A-FIG. 9D show schematics and quantification of the kinetics and affinity of the VISTA-VSIG3 interaction by surface plasmon resonance (Biacore) using monomeric VISTA and multimeric VISTA-COMP. FIG. 9A and FIG. 9C show schematics of the Biacore experiment, where VISTA (FIG. 9A) or VISTA-COMP (FIG. 9C) is captured on the surface of a CM5 chip (GE Healthcare) using an anti-poly His antibody. The analyte, VSIG3-Fc, is flowed over the captured VISTA at concentration ranging between 0.2 nM and 20 μM. FIG. 9B and FIG. 9D show resulting sensorgrams and kinetic fits using a 1:1 model for the monomeric VISTA-VSIG3-Fc interaction (FIG. 9B) and the multimeric VISTA-COMP-VSIG3-Fc interaction (FIG. 9D). For captured monomeric VISTA, the VSIG3-Fc analyte was tested in the range of 0.247 μM to 20 μM. For captured multimeric VISTA-COMP, the VSIG3-Fc analyte was tested in the range of 0.2 nM to 500 nM.
# as §1
# monomeric VISTA [6] = biological target: monomeric VISTA (human); experiment: SPR (Biacore): monomeric VISTA captured by anti-poly-His antibody on a CM5 chip, VSIG3-Fc analyte 0.247 to 20 µM, 1:1 fit
# Description: as §2, §1
# [7] = biological target: T1, Recombinant human VISTA Fc Chimera; experiment: AVEXIS screen
# Chain of VISTA(1-195)-COMP-His (human) (chain, as listed by the source): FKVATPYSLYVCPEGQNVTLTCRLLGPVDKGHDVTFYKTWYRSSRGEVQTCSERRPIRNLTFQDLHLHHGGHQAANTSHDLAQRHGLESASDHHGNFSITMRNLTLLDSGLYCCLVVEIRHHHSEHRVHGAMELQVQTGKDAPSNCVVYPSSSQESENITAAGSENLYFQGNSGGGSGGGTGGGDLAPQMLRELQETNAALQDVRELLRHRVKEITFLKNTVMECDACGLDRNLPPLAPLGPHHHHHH
# Chain of monomeric VISTA (human) (Q9H7M9 33-194): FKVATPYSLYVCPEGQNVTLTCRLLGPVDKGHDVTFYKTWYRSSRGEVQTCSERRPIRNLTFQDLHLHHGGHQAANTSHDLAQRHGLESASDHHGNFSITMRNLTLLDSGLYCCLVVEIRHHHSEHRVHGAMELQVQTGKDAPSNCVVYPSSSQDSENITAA
Binder,fold higher affinity than with monomeric VISTA (VISTA(1-195)-COMP-His [1]) [fold],EC50 [2] [µg/mL],Kd (VISTA(1-195)-COMP-His [3]) [µM],Kd (monomeric VISTA [4]) [µM],Kd (VISTA(1-195)-COMP-His [5]) [µM],Kd (monomeric VISTA [6]) [µM],binding result [7]
B1,~150,~0.25,~0.017,~2.5,0.017,2.52,
B2,,,,,,,no binding
